In IntAct's records for PubMed 31515488:

B1: Zinc finger protein 473 (Homo sapiens), Q8WTR7 (parent)
chain: MAEEFVTLKDVGMDFTLGDWEQLGLEQGDTFWDTALDNCQDLFLLDPPRPNLTSHPDGSEDLEPLAGGSPEATSPDVTETKNSPLMEDFFEEGFSQEIIEMLSKDGFWNSNFGEACIEDTWLDSLLGDPESLLRSDIATNGESPTECKSHELKRGLSPVSTVSTGEDSMVHNVSEKTLTPAKSKEYRGEFFSYSDHSQQDSVQEGEKPYQCSECGKSFSGSYRLTQHWITHTREKPTVHQECEQGFDRNASLSVYPKTHTGYKFYVCNEYGTTFSQSTYLWHQKTHTGEKPCKSQDSDHPPSHDTQPGEHQKTHTDSKSYNCNECGKAFTRIFHLTRHQKIHTRKRYECSKCQATFNLRKHLIQHQKTHAAKTTSECQECGKIFRHSSLLIEHQALHAGEEPYKCNERGKSFRHNSTLKIHQRVHSGEKPYKCSECGKAFHRHTHLNEHRRIHTGYRPHKCQECVRSFSRPSHLMRHQAIHTAEKPYSCAECKETFSDNNRLVQHQKMHTVKTPYECQECGERFICGSTLKCHESVHAREKQGFFVSGKILDQNPEQKEKCFKCNKCEKTFSCSKYLTQHERIHTRGVKPFECDQCGKAFGQSTRLIHHQRIHSRVRLYKWGEQGKAISSASLIKLQSFHTKEHPFKCNECGKTFSHSAHLSKHQLIHAGENPFKCSKCDRVFTQRNYLVQHERTHARKKPLVCNECGKTFRQSSCLSKHQRIHSGEKPYVCDYCGKAFGLSAELVRHQRIHTGEKPYVCQECGKAFTQSSCLSIHRRVHTGEKPYRCGECGKAFAQKANLTQHQRIHTGEKPYSCNVCGKAFVLSAHLNQHLRVHTQETLYQCQRCQKAFRCHSSLSRHQRVHNKQQYCL

Variants of: B1
Details: with gpt2l_human GPATCH2L

Effect of a mutation on the interaction, with no effect:
R605Q
S662A

Variants of: B1
Details: with zn792_human ZNF792, Q3KQV3
Sequence of zn792_human ZNF792, Q3KQV3 (Q3KQV3 whole entry): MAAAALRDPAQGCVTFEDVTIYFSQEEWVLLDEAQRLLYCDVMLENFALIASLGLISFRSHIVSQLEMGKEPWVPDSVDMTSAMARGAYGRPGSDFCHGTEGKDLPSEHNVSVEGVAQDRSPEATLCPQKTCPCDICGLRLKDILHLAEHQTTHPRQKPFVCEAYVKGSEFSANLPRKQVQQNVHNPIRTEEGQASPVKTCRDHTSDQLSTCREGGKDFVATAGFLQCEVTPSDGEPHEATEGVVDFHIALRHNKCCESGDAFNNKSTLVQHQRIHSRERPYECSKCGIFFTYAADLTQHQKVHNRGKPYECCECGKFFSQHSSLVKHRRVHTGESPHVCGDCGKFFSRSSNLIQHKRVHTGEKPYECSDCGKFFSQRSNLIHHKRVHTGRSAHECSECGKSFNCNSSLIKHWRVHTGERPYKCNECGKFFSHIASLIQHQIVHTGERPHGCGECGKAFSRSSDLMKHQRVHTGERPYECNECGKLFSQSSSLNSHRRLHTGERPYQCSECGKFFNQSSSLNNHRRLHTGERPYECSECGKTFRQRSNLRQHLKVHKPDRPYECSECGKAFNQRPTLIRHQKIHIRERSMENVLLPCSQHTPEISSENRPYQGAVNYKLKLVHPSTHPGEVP

Effect of a mutation on the interaction, with no effect:
R605Q
S662A
N82S
T164M

Variants of: B1
Details: with aen_human AEN

Effect of a mutation on the interaction, with no effect:
R605Q
S662A
N82S
T164M

Variants of: B1
Details: with tri41_human TRIM41, Q8WV44

Effect of a mutation on the interaction, with no effect:
S662A
N82S
T164M
